The values that follow are results of earlier work, collected in paper PMC5116920.

This data set addresses Histone H4 (UniProt P62805).

With TAF1 BD (from UniProt P21675), the Kd (in general, the constant that tells how readily two partners part at equilibrium) is 100 µM.
